Biological target: GFP-TIpA fusion protein (Salmonella typhimurium) [GFP: P42212]
Assay: cell-based or functional assay

For “GFP-TIpA fusion protein (from UniProt P42212 1-238)”, the fluorescent intensity when excited at 395 nm, temperature raised from 10° C. to 55° C. was 30%.
